Data on one molecule can be found in patent publication CN113842456A (QILU PHARMACEUTICAL CO LTD, dated 2021).

Test [1] concerns the target T1, 重组人4-1BB蛋白(ACRO，货号41B-H5227) (human, UniProt Q07011 24-186).
T1 construct: Bought recombinant protein; also called 4-1BB抗原; TNFRSF9
In words: SPR (BIAcore), antibody captured on Protein A on a CM5 chip, 4-1BB 20nM-0.31nM as analyte. In general terms: In SPR one partner is held on a chip, and binding of the other changes the refractive index at the surface.

For test [2], the target named is 人4-1BB on HEK293/Human4-1BB细胞 (human, UniProt Q07011 24-255). The experiment in a line: cell-based or functional assay.
人4-1BB on HEK293/Human4-1BB细胞, sequence (Q07011 24-255): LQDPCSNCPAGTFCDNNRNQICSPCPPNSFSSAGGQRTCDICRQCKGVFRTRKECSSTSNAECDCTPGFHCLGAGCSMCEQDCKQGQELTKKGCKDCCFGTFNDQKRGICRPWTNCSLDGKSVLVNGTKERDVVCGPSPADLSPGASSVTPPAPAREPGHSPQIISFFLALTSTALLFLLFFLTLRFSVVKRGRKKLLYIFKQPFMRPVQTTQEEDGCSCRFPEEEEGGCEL

B1: 抗人4-1BB的单克隆抗体MC03 (antibody, human IgG2, kappa, V domains shown)
VH: EVQLVQSGAEVKKPGATVKISCKASGFNIKDYYIHWVNQAPGKGLEWIGRIDPEDGDIAYAPKFQDRVTLTVDTSTDTAYLELSSLRSEDTAVYYCTTGNYYAMDFWGQGTTVTVSS
VL: QIVLTQSPATLSASPGERVTLSCTASSSVSSSYLHWYQQKPGSSPKLWIYSTSNLASGVPARFSGSGPGTSYTLTISSMEPEDAATYYCHQYHRSPPTFGQGTKLEIKR
notes: Obtained according to PCT/US2020/012080; The isotype control used is human IgG2; also called huG28.21.G2.1.4
As usually defined, the Kd is the constant that tells how readily two partners part at equilibrium. Read a high Kd as a looser complex. In turn, B1 registered a Kd in test [1] of 0.918 nM. Further, the “NF-κB报告基因发光值(RLU) EC50” value in test [2] is 7.69 ng/mL.
